Data: paper PMC6249252, “COMP and TSP-4 interact specifically with the novel GXKGHR motif only found in fibrillar collagens” (Scientific Reports, 2018)
Like-named read-outs stand apart in the source and are kept apart here.

How the values were obtained:
[1] = Dynamic light scattering of COMP solution with ZnCl; assay type: physicochemical; settings: 20 °C, cumulant radius over time
Procedure: Dynamic light scattering (DLS) was measured with a Wyatt DynaPro Nanostar using the disposable cuvettes (UVettes, Eppendorf). Data was acquired as a mean of 5 acquisitions, measured each for 5 s at a fixed temperature of 20 °C. The laser was set to auto-attenuation and the data analysed with the Dynamics software from Wyatt. Graph show the cumulant radius versus time for COMP with indicated ZnCl2 concentrations.

COMP [2] = biological target: T1, COMP (Homo sapiens, UniProt P49747); settings: read-out: dissociation constant for COMP reported for collagen II; cited from earlier work
Procedure: To elucidate the binding site of COMP on the collagen II helix we incubated pentameric COMP at 200 nM concentration with our generated collagen II foldon library (Fig. 2). […] To confirm our finding and get proper binding affinities we coated the peptide 5 and incubated it with indicated concentration of COMP (Fig. 3a). The dissociation constant for COMP and pep5 (19.3 ± 12 nM) was slightly higher than reported for collagen II (1.72 ± 0.16 nM)[10]. ...

COMP [3] = biological target: T1, COMP; assay: ELISA-style binding assay, COMP on coated collagen model peptides / collagen; settings: for Kd: peptide or collagen coated at 10 µg/ml (500 ng per well) on ELISA plate, pentameric COMP at indicated concentrations, 1 h, room temperature, TBS-T with 0.25% BSA, anti-COMP antibody, four-parameter logistic fit, triplicates, read-out: Apparent KD; for effect of additive in interaction buffer on COMP binding to peptide 5: peptide 5 coated, COMP in pure TBS-T with the indicated chemical compound, compared to pure TBS (Fig. 3b)
Procedure: (§1) For ELISA-style binding assays, rat tail collagen I (BD Bioscience) or the indicated collagen model peptides were diluted in TBS and coated at 10 µg/ml (500 ng per well) overnight at 4 °C. Further steps were performed at room temperature. After washing with TBS-T (TBS containing 0.05% (vol/vol) Tween-20), plates were blocked for 1 h with 1% (wt/vol) BSA in TBS. Strep-tagged COMP was added at indicated concentrations in TBS-T containing 0.25% (wt/vol) BSA) and incubated for 1 h. For assays with addition of cations pure TBS-T was used as interaction buffer. After washing away unbound protein with TBS-T, bound COMP was detected with a 1:3000 dilution of a specific polyclonal antibody against bovine COMP in interaction buffer. The antibody was raised in rabbit against bovine COMP purified from articular cartilage and characterised before in various studies[46]–[48]. The TSP-4 antibody was raised in guinea pigs and was previously described and characterised[30],[49]. The primary antibodies were detected with an HRP–conjugated swine anti-rabbit (DAKO, P0399) or rabbit anti-guinea pig antibody (Sigma, A5545). Bound secondary antibodies were visualised with tetramethylbenzidine as substrate, the reaction was either measured directly at 370 nm or stopped with 10% H2SO4 and measured at 450 nm. Data were analysed using Origin 2017 and fitted using a four-parameter logistic model.

TSP-4 = TSP-4 (UniProt P35443); assay: ELISA-style binding assay, TSP-4 on coated GVKGHR foldon construct; settings: GVKGHR foldon construct coated to ELISA plate, incubated with TSP4, anti-TSP4 antibody; fitted; triplicates
Procedure: as §1

[4] = CD spectroscopy thermal unfolding of collagen model peptides; assay type: physicochemical; settings: CD spectroscopy at 210 nm, heated at 1 °C/min, approx. 0.1 mg/ml, 1 mm cell, 4 parameter logistic fit
Procedure: CD spectra of the col2p5 peptide and its derivatives were measured using a Jasco J–715 equipped with a peltier-element cuvette cooler. The samples were heated at 1 °C/min in a 1 mm path length quartz cell at approx. 0.1 mg/ml. Thermal unfolding was measured in a range between 20 °C and 70–90 °C and specific ellipticity recorded at 210 nm ever 1 °C. Additionally, every 5 °C far-UV spectra (200–250 nm) were recorded in triplicates. Data was fitted with a 4 parameter logistic fit using Origin 2017[45].

T1 sequence (P49747 21-757): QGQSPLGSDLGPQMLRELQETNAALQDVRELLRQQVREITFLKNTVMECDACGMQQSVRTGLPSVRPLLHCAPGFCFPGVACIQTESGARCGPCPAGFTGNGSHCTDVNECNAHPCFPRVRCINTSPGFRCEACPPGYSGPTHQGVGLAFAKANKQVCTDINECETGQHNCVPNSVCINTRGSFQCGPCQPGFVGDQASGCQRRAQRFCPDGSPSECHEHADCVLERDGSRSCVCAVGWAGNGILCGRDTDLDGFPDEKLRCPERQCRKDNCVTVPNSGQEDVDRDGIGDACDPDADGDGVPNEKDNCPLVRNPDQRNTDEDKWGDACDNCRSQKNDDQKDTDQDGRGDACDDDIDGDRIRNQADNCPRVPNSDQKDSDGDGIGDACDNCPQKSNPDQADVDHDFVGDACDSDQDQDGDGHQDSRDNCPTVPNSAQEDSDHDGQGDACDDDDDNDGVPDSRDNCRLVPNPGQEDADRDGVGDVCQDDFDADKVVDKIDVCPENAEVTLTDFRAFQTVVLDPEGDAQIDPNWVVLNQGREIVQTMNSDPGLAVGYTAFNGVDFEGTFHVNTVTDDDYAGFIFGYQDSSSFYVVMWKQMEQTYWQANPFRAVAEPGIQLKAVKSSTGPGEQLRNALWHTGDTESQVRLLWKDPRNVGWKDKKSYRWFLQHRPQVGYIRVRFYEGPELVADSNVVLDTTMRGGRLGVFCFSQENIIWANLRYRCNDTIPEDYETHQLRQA
TSP-4, sequence (P35443 27-961): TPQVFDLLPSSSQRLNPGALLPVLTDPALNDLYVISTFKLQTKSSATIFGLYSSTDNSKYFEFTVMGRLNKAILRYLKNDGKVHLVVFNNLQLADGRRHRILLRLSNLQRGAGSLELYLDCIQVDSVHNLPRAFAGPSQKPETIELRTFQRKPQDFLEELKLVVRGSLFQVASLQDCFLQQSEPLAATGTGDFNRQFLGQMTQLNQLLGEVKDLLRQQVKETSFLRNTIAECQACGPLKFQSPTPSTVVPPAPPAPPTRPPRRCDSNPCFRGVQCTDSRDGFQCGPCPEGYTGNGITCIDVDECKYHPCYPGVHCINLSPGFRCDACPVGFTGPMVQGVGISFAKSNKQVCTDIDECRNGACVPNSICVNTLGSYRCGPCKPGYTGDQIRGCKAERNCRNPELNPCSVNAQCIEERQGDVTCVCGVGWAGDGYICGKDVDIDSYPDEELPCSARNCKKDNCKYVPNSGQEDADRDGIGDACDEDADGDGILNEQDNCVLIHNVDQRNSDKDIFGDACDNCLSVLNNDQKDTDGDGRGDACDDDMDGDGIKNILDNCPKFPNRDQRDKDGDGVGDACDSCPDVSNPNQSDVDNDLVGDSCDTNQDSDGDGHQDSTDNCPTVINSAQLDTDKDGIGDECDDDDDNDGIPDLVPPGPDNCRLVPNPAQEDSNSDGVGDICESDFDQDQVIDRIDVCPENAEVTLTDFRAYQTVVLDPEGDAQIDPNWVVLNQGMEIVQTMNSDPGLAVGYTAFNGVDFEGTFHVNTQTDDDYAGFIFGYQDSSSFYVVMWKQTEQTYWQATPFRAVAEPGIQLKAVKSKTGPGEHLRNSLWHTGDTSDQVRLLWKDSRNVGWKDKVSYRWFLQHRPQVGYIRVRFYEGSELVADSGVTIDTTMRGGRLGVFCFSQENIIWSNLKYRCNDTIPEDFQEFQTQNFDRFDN

Molecule	Kd (COMP [3])	Melting point (°C) [4]	further results
COMP: recombinant pentameric cartilage oligomeric matrix protein, Strep-tagged, expressed in HEK293 (EBNA) cells	–	–	hydrodynamic radius via DLS (aggregation) ([1]; 0.0 mM versus 0.1 mM ZnCl): could not detect any difference; hydrodynamic radius via DLS (aggregation) ([1]; addition of 1 mM ZnCl): starts to aggregate dramatically
collagen II: collagen II, literature value for COMP binding	–	–	Kd (COMP [2]): 1.72 ± 0.16 nM
GEAGEPGERGLKGHRGFTGLQGLPGPP [peptide 52, library peptide with the C-terminal GLKGHR motif of collagen II, foldon context]	4.1 ± 0.8 nM	–	–
GVKGHR	1.61 ± 0.29 nM	56.5 ± 0.6 °C	Kd (TSP-4): 0.56 ± 0.05 nM
GARGFPGTPGLPGVKGHRGYPGLDGAK [peptide 5, E. coli expressed collagen II library peptide in NStrep-(GPP)6-GUEST-(GPP)6-foldon context]	19.3 ± 12.4 nM	36.1 ± 0.5 °C	–
O=C(O)CN(CCN(CC(=O)O)CC(=O)O)CC(=O)O [EDTA, reference compound]	–	–	effect of additive in interaction buffer on COMP binding to peptide 5 (COMP [3]): reduced the binding significantly
GLPGPKGHR	2.26 ± 0.39 nM	52.5 ± 0.6 °C	–
c1cnc2c(c1)ccc1cccnc12 [phenanthroline, 1,10-phenanthroline, reference compound]	–	–	effect of additive in interaction buffer on COMP binding to peptide 5 (COMP [3]): does not reduce the binding compared to pure TBS
GLPGVPGHR	–	51.1 ± 0.3 °C	–
[Cl-].[Cl-].[Zn+2] [zinc, reference compound]	–	–	effect of additive in interaction buffer on COMP binding to peptide 5 (COMP [3]): increased the affinity towards the peptides
GLPGVKGHR [unique region of pep5 in N-Strep-(GPP)6-GUEST-(GPP)6-foldon context]	–	48.2 ± 0.6 °C	COMP binding to minimal motif peptides (ELISA signal) (COMP [3]; COMP at 400 nM, one-point measurements (Fig. 4a), or at indicated concentrations (Fig. 4b)): sufficient for binding
GLPGVKGHP	–	47.9 ± 0.4 °C	–
